Assays:
[1] = biological target: T1, SUMO1 EIL peptide SLRFLFEGQRIADNH (SEQ ID NO: 1)
T1 chain: SLRFLFEGQRIADNH

[2] = biological target: T2, SLRFLYEG (SEQ ID NO: 38)
T2 chain: SLRFLYEG

[3] = biological target: SUMO1, P63165
[4] = biological target: SUMO2R61L, P61956
[5] = biological target: SUMO2, P61956
[6] = biological target: SUMO1E67A, P63165
[7] = biological target: RanGAP modified with SUMO1, P63165
[8] = biological target: RanGAP
[9] = biological target: SUMO2D71H, P61956
SUMO2D71H, P61956, sequence (P61956 other isoform, or with tags, fused parts or gaps): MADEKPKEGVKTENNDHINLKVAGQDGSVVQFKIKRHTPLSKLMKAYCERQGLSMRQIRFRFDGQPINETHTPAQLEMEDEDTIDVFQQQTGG

SUMO2R61L, P61956, sequence (P61956 1-93 R61L): as the sequence (P61956 other isoform, or with tags, fused parts or gaps) above, with R61L, H71D counted along it
SUMO2, P61956, sequence (P61956 1-93): as the sequence (P61956 other isoform, or with tags, fused parts or gaps) above, with H71D counted along it

B1: Dipeptidyl peptidase IV (DPPIV) (protein)
chain: SRKTYTLTDYLKNTYRLKLYSLRWISDHEYLYKQENNILVFNAEYGNSSVFLENSTFDEFGHSINDYSISPDGQFILLEYNYVKQWRHSYTASYDIYDLNKRQLITEERIPNNTQWVTWSPVGHKLAYVWNNDIYVKIEPNLPSYRITWTGKEDIIYNGITDWVYEEEVFSAYSALWWSPNGTFLAYAQFNDTEVPLIEYSFYSDESLQYPKTVRVPYPKAGAVNPTVKFFVVNTDSLSSVTNATSIQITAPASMLIGDHYLCDVTWATQERISLQWLRRIQNYSVMDICDYDESSGRWNCLVARQHIEMSTTGWVGRFRPSEPHFTLDGNSFYKIISNEEGYRHICYFQIDKKDCTFITKGTWEVIGIEALTSDYLYYISNEYKGMPGGRNLYKIQLSDYTKVTCLSCELNPERCQYYSVSFSKEAKYYQLRCSGPGLPLYTLHSSVNDKGLRVLEDNSALDKMLQNVQMPSKKLDFIILNETKFWYQMILPPHFDKSKKYPLLLDVYAGPCSQKADTVFRLNWATYLASTENIIVASFDGRGSGYQGDKIMHAINRRLGTFEVEDQIEAARQFSKMGFVDNKRIAIWGWSYGGYVTSMVLGSGSGVFKCGIAVAPVSRWEYYDSVYTERYMGLPTPEDNLDHYRNSTVMSRAENFKQVEYLLIHGTADDNVHFQQSAQISKALVDVGVDFQAMWYTDEDHGIASSTAHQHIYTHMSHFIKQCFSLP
hydrolysis of GP-AMC by DPPIV [1]: DPPIV is not inhibited by the EIL peptide, also in the presence of 13 µM peptide
hydrolysis of GP-AMC by DPPIV [2]: It has no inhibitory effect towards DPPIV, in the concentrations measured (up to 50 µM)

B2: Dipeptidyl peptidase 8 (DPP8), recombinant (protein)
chain: MWKRSEQMKIKSGKCNMAAAMETEQLGVEIFETADCEENIESQDRPKLEPFYVERYSWSQLKKLLADTRKYHGYMMAKAPHDFMFVKRNDPDGPHSDRIYYLAMSGENRENTLFYSEIPKTINRAAVLMLSWKPLLDLFQATLDYGMYSREEELLRERKRIGTVGIASYDYHQGSGTFLFQAGSGIYHVKDGGPQGFTQQPLRPNLVETSCPNIRMDPKLCPADPDWIAFIHSNDIWISNIVTREERRLTYVHNELANMEEDARSAGVATFVLQEEFDRYSGYWWCPKAETTPSGGKILRILYEENDESEVEIIHVTSPMLETRRADSFRYPKTGTANPKVTFKMSEIMIDAEGRIIDVIDKELIQPFEILFEGVEYIARAGWTPEGKYAWSILLDRSQTRLQIVLISPELFIPVEDDVMERQRLIESVPDSVTPLIIYEETTDIWINIHDIFHVFPQSHEEEIEFIFASECKTGFRHLYKITSILKESKYKRSSGGLPAPSDFKCPIKEEIAITSGEWEVLGRHGSNIQVDEVRRLVYFEGTKDSPLEHHLYVVSYVNPGEVTRLTDRGYSHSCCISQHCDFFISKYSNQKNPHCVSLYKLSSPEDDPTCKTKEFWATILDSAGPLPDYTPPEIFSFESTTGFTLYGMLYKPHDLQPGKKYPTVLFIYGGPQVQLVNNRFKGVKYFRLNTLASLGYVVVVIDNRGSCHRGLKFEGAFKYKMGQIEIDDQVEGLQYLASRYDFIDLDRVGIHGWSYGGYLSLMALMQRSDIFRVAIAGAPVTLWIFYDTGYTERYMGHPDQNEQGYYLGSVAMQAEKFPSEPNRLLLLHGFLDENVHFAHTSILLSFLVRAGKPYDLQIYPQERHSIRVPESGEHYELHLLHYLQENLGSRIAALKVI
hydrolysis of GP-AMC by recombinant DPP8 [1]: pure recombinant DPP8 and DPP9 are inhibited by the EIL peptide, also in the absence of SUMO1

B3: Dipeptidyl peptidase 9 (DPP9), recombinant wild-type (protein)
chain: MRKVKKLRLDKENTGSWRSFSLNSEGAERMATTGTPTADRGDAAATDDPAARFQVQKHSWDGLRSIIHGSRKYSGLIVNKAPHDFQFVQKTDESGPHSHRLYYLGMPYGSRENSLLYSEIPKKVRKEALLLLSWKQMLDHFQATPHHGVYSREEELLRERKRLGVFGITSYDFHSESGLFLFQASNSLFHCRDGGKNGFMVSPMKPLEIKTQCSGPRMDPKICPADPAFFSFINNSDLWVANIETGEERRLTFCHQGLSNVLDDPKSAGVATFVIQEEFDRFTGYWWCPTASWEGSEGLKTLRILYEEVDESEVEVIHVPSPALEERKTDSYRYPRTGSKNPKIALKLAEFQTDSQGKIVSTQEKELVQPFSSLFPKVEYIARAGWTRDGKYAWAMFLDRPQQWLQLVLLPPALFIPSTENEEQRLASARAVPRNVQPYVVYEEVTNVWINVHDIFYPFPQSEGEDELCFLRANECKTGFCHLYKVTAVLKSQGYDWSEPFSPGEDEFKCPIKEEIALTSGEWEVLARHGSKIWVNEETKLVYFQGTKDTPLEHHLYVVSYEAAGEIVRLTTPGFSHSCSMSQNFDMFVSHYSSVSTPPCVHVYKLSGPDDDPLHKQPRFWASMMEAASCPPDYVPPEIFHFHTRSDVRLYGMIYKPHALQPGKKHPTVLFVYGGPQVQLVNNSFKGIKYLRLNTLASLGYAVVVIDGRGSCQRGLRFEGALKNQMGQVEIEDQVEGLQFVAEKYGFIDLSRVAIHGWSYGGFLSLMGLIHKPQVFKVAIAGAPVTVWMAYDTGYTERYMDVPENNQHGYEAGSVALHVEKLPNEPNRLLILHGFLDENVHFFHTNFLVSQLIRAGKPYQLQIYPNERHSIRCPESGEHYEVTLLHFLQEYL
hydrolysis of GP-AMC by recombinant DPP9 [1]: pure recombinant DPP8 and DPP9 are inhibited by the EIL peptide, also in the absence of SUMO1
hydrolysis rate of GP-AMC by DPP9 [3]: the hydrolysis rate of GP-AMC by DPP9 was increased in the presence of SUMO1 in comparison to control reactions
hydrolysis of GP-AMC by DPP9 [4]: This activation was not observed in the presence of SUMO2R61L
hydrolysis of GP-AMC by DPP9 [5]: SUMO1 but not SUMO2 can regulate DPP9 activity
hydrolysis of GP-AMC by DPP9 [6]: this activation was not observed in the presence of SUMO1 mutated in a single amino acid: SUMO1E67A
hydrolysis of GP-AMC by DPP9 [7]: DPP9 activity is increased when incubated with RanGAP modified by SUMO1, but not by unmodified RanGAP
hydrolysis of GP-AMC by DPP9 [8]: DPP9 activity is increased when incubated with RanGAP modified by SUMO1, but not by unmodified RanGAP
hydrolysis of GP-AMC by DPP9 [9]: DPP9 activity was increased in the presence of SUMO2 mutated in a single amino acid: D71H
